Source: a protein production outcome set (Wang et al. 2014)

Test: label from the status in PepcDB records

Row | Sequence | protein production
1 | MKQIRMLAQYYVDLMMKLGLVRFSMLLALALVVLAIVVQMAVTMVLHGQVESIDVIRSIFFGLLITPWAVYFLSVVVEQLEESRQRLSRLVDKLEEMRERDLKLNVQLKDNIAQLNQEIGEREKAEAERETTLEQLKIEMKEREETQIQLEQQSSFLRSFLDASPDLVFYRNEDKEFSGCNRAMELLTGKSEKQLIHLKPQDVYSEEAAEKVLETDEKVFRHNVSLTYEQWLDYPDGRKACFEIRKVPYYDRVGKRRGLMGFGRDITERKRYQDALERASRDKTTFISTISHELRTPLNGIVGLSRILLDTELTSEQEKYLKTIHVSAVTLGNIFNDIIDMDKMERRKVQLDNQPVDFTSFLADLENLSGLQAQQKGLRFVLEPSLPLPHKVITDGTRLRQILWNLISNAVKFTPQGGGVNVRVRYDEGDILHFEVEDSGIGIPEAEQDKIFAMYYQVKDSHGGKPATGTGIGLAVSRRLARNMGGDISVTSQPGKGATFTLTVHAPAIAEEVEDTLAEDDMPLPALNVLLVEDIELNVIVARSVLEKLGNSVDVAMTGKAALEMFEPGEYDLVLLDIQLPDMTGLDISRELKQRFAADELPPLVALTANVLKNKKEYLDAGMDDVLSKPLSVPALTAMIKKFWDAPDEEAQEAPAADLHKADAVLDTDMLEQYIELVGPKLINDGLAVFEKMMPGYMSVLESNLTARDQKGIVEEGHKIKGAAGSIGLRHIQQLGQQIQTPDLPAWSDNVAEWVEEMKSEWQNDVAVLKAWVAKASKK | failed
2 | MKQKNAYNRLTNHYDDVLTGRKWWSWLYMHCLWKTDDNIIAGSVLDMIPGNFEGRILDVPVGTAIFTYDKYRRMPQAEIVGLDYSQEMLDIAAMRFSAEQITNVSLRQGDVGSLPFPDAAFDLVLSMNGFHVFPDKDRAFAETFRVLRGGGLFCGCFYVKGERKPADWFVRKFLDKKGLFRPPHYTREEAIEKLRSLYGDNVEIQDARSLLVFKCTKPRLEHHHHHH | not failed
3 | MKQRVITAVIALILFIPIVLAGGLWMDWLTVLFAAVGISEIFLMKKQILVSFDFLLALLATLTWTVPDSFFKVFPSNITKLGVFYGIIMLFLTWTVLSKNKTTFDDVGVYILAALYIGIGFHYMAAIRAYPQNGLALLGYVFVVVWSTDIGAYMIGRKIGKHKLWPVISPNKTWEGSIGAVICALICSAIYLAILSSFNITFGVSELSMVVLAFFLSIVGQMGDLVESAYKRFYGVKDSGKILPGHGGILDRFDSMLFVLPVVAAILGIVH | failed
4 | MKQVPDVNKIKFDPETKRIVRKDVPLMMNSFDKKAVEEAIRISERHGWETCVATMGPPQAVEVINEALRMGIERGYLITDPSLANSDTLITSRVLAAFALRYGPDLVLMGKYSLDGETSQVPAEVSALMGWPYVPSVSKIMISDHLELEQELENGIYTCSAPLPCVLSLSEKINRARAIKPDTPQMYDRIVQIDTKWLGLDLDGGRDSPTAVIGTEQVNSNRSPVFIDPGADMYRQIMEIIRVSR | failed
5 | MKQVVLNLKDGDLTVEEVPIPTIKGSGVLVRNHYSVISAGTESGVVDLADKSLIGKARARPDLAMKVINKAKQDGPISAFQQAMGRLEKREPLGYSSAGTVISVSEDIKDIKPGDRVACAGAGYANHADVVFVPRNLCAKVPENVDFKNACFTTVGSIAMQGVRNADVKIGENIVVIGLGLIGLITLQILKASGCRVFGVDLDESKVNLARELGADLSYSRNSPNLEERIKQFSRGIGADSTIITAATRSNDPVDFAGKITRERGKVVIVGLVGMDIPREEYYNKELEMRISRSYGPGRYDRNYEEYGQDYPAPYVRWTENRNMQAFLDLISMKKISMEPIITHEYEIEQAPEAYNIIKERKPYLGLVLKYDTDKRIEDKVILKSPGPVSAISESFSPVLGVIGAGIFATSILLPNLSKIKGVKLKGLSAASGLSCESVAKKYGFEYCTSDYHKILSDPEINCVSIVTRNSLHASLVIEALKNKKNVLVEKPLALNEEELNAIIEAKKENGGFIMVGFNRRYSELGVKLKDFFKNRSQSMVAYYRVNAESIPKDHWVYDESEGGSRIITECCHFIDFMQFIIGSSPVEVYARKIESQVKTPEDNENVSITIAFEDGSIGTLIYTTHGDSSVSKEHAEFFADGMVGAITDFKQLKLVKDGKCTQINKRLITEKGHKNELENFFKMVKQGPSKYSFEENVLTTVSTLKAAEHVMSGGPVKLI | failed
6 | MKRATLPRGRVAGLTAGSLAAVGLALALTLGGVSVVPSGFDGIEDLPLPGGADLGDHPYTVTAELQDVLSLVPHSAVRVNDVAVGRITGIELGEDDWSARVTMEINGEVRLPADATARLEQSSLLGEKYVQLVAPAKETGTGRLTDGSVIPLARTSRNTEVEEVFGALSLLLNGGGVNQLKTITRELNAALGGREPEVRSMLKRVNTLVGDLDDHRGDITDALDAVNRLSSTLATRKDDVGTVLTDLSPGLKTLERQRGSLLTMLRSLDTLSGVAVSTINASKDDMIADLKAVAPTLRALADAGTDLPDSLQVLLTYPFTDEVLRGVKGDYLNTYLSMVAVPGTEVIPPLVDGDTPGPTASATAQDGPDPAAKNPAAKNPISRKRSSGQRGSASPLPLPSVSGAGPASGGEHGLEHHHHHH | not failed
7 | MKRCRRRTQAGIRINLCVQGREGLSSPTPIGPIVTSTQPDSRASSLTDDALQWTRLEVAFTAGIVGCLLFATWQLGDLLARDWLAGWVGESELREDLVYYGVAFTAALAALGGTTRSLAHAGRFRRTVGRSLLWYGALLLISASGMGAIEYLPEVAAGLFGAGVLIAAVYVLQQRYFTRERIRRRRLRNDNCPQCGSDLRPEAHHCSQCGRRMGEDCPECGGYLGRSDRYCADCGRERAEGAP | failed
8 | MKREGNMTLLVRNFIVSIALAISDFFSFVISLYLAIGVLSITISDYETVISVNQLEGWKALHWLLGLCCIAWYSMRLRHYFYRKTFWFELKEILRTLVIFAIIEIAVMAFASWSFSRYLWVLTWFFVLLLVPLARMVTKRVLDVFGLWHRDTWIIGSGANAQEAYKAINSERNLGLVIVGFIAVTGERSENKDINGVPVLAHDPDWLSSMDKKTQFIVAVESHQSEVRNAWLRNFMIKGYRYISVIPTLRGMPLDSTDMSFIFSHEVMIFRVQQNLAKWSSRILKRAFDIVGSLAIIIILSPALIYISRKVKRDGGPSIYGHERIGKGGKSFKCLKFRSMVINSKEVLEKLLDSDSEAKKEWDATFKLKNDPRITKIGAFLRRTSLDELPQLFNVLKGEMSLVGPRPIITAELIRYNDEVDYYLLSKPGMTGLWQVSGRSDVDYETRVYLDAWYVKNWSMWNDIAILFKTISVVLKKDGAY | failed
9 | MKRENIKTILLTVLVVISLVFTWGIWTFQPNFSEGSSSTESTVRVKHKIEKTTQKLSETVRPRDMFIHDDGAHYKVDDNALYEEIWSDLPHWDVKGIKDISDQYDKAGFKSWFYGIGGSEAKLDLQFSDTIPIDIFQTLFKWSNQSFEYSSFDHILIPFNETKANKKIYLVSYSKQLILEVTVESANYRNIMNDLKNRQSNMPAFSLFSIGSKKEFLLPNKPLTMDKKEFVTESIKTNTFKQALFSDPSIVREDSNYNNRNVLTDGISRLDVNLSQRQVQFQQRNLVQSTSYQTGELIKKSQKYLEDTGSWTDHYQFFNINDSQQLSFYIFMDQIPVINSTAKPFGATSAITVQWANDDILSYKRPNYSLGTNPIKTSETELMGGSEVKMLLSKQTAYDTDKIDQIFLAYQLVSTSTNDDPLVELEPVWAMKVNGKIVPITKDLLRKEGANSGVE | failed
10 | MKRFILLSFVVLALGFYELSGGPDFDPEVARASIIDARQERELARKAALPGPVYVAAAPSAEPEVEDSVTRANLNLVSFASVVAEPEISTVTAPVAVARADTPETAPEITVKRLAAAQDEPLSLAALSPAQEPSRNVFAGSSIVASSSDINGEKNLRSVKGTRVNMRSGPGTQYDVVAQLTQSEEVEVLTDTGNGWVELRPLEGGPTGWVAEFLLTGG | failed
11 | MKRFINRRQELDFLEKQYREQNSSLVIIYGRRRIGKTALIKKFIEDKPAIYFLASEEAESQNIEYYKKAVGNFLKNPLIERLSGVGWDDIFDVIINAKINKKTVIVFDEFQNLCKTNPAFASIVQRIWDEKLKNHNFMLILSGSLVGMMQEHALSYSSPLYGRRTGQIKLKQFSFKEAKEFFPEASDDQFIWIYSIVGGVPKYLEMFKFEGDIYKAIEENILSRQSFLYEEPLFLLEKEVHEVGSYFSIIKSIALGNHKLSQIAQSLSTAQTKLTKYLNTLIDLDIVRREVPVTEEYPEKSKRGLYFINDNFIDFWFKFVYPYREQLELDNTEYVIENIKSKIVTNHISFIYEEVCRQILMDLIKTKEIDIQLDRIGKWWDSKSEIDIVGISKNTGHVVFGECKYSQRVVDIDVFFNLKKKAENIKVFPEQKELYILFSRTGFSERLLEFAKETENLILIKFP | failed
12 | MKRFPFRPRLLVTVSLVALLLPGCASKPNNLKPSMPEPRLGVASENPGKPKKGKQASSGSQYDTLWERMFSLYALPQVEHRSVEREVSWFINHPDYLKRAQKRAEPFLYTIVRQLEKQKMPGELALLPIVESAFQPHAVSPARAAGIWQFIPETGRRYGLKRSRSYDGRRDVYASTRAAIKYLKKLHNDFNGDWLLAIAAYNCGEGAVAKAIQRNEARNLPTDFWSLDLPDETKAYVPRLLAVSKVFANADKYAIDLHYIPNEAIFKPVKVSSQLDLALAADAADMSLERMLELNPGFKHPHADIEGSYRLFVPADKSRKFKKELARLAMSGQFDSHPPADEGDGSTGFGHRGSLETATEDDAAPGRERSVRKPVVSGYGAEYAVPSRSAERGGPAKDSSRSERWQSVETPSRGGSAVVAHLRDGSRLRDVWGREHGQEDKPLKGNRRPDERLGLSSKANPNRKEGGRKVAGGSALSREEALREERGDRGKEKHAISIPFDERHGGGIKASQSIRHTVKPGETLFAISQRFGVSVADLRKWNGVKENKLEAGRNIRVSAGKD | failed
13 | MKRGLRKERNKEDEAGKIVNEGKAHLFYKVIILMVFYISYGIYLYWRFAYTIPRGYGDIALIAGYVLFIAETIGFLESSMFYLTLWDTNTPSTPEVQDKEFPHVDIFIASYNEPRNLLYKTLIGCKNMDYPDKSKVHIYICDDGNRKDIKELCESLKVGYITREDNTHAKAGNLNNALKQTSSPYVVTFDADMIPMHDFLLKTIPFFMVEDKIGFVQVPQNFYNADPFQYNLFNESRVPNEQNLFSRLIQAGKNRFNAIIYSGSNTVLSREALNEINGLVVGTITEDFATGMKIQSKGYKCIYLNETHASGLSPESLEDLYSQRIRWGRGVIQTFKAFNPLFMRGLNIYQKLMYFSAFSYWYFGLWRLIFFMAPIVFSVFGVVVLSTSAIQMLEVWLPMFIFTNLTFYHFSKKVRSVSWTHIYDTILFPQITVGILKETFGFKMSKFKVTPKENVRRDNFTNRFELVRVQIVLAVLSFAGIVRIIYLYVTNNFEAQYIINLFWLTYNFYLLVMAIFFASERPKFRNNERMFVSEEAYVVNNEQKLYGKTIDISETGISIKLEKPICIDPNENYSIGVKTARNSAEFSGKIVRVDNFKDGHKYAFNITEIDEKNFSELILILYDRVPPSPEKQKRDYMTVNVLRNIINRKKRIVPLNRKLPRVKIDKKVKILVSKNEEGIHVVDFNYMYIAVKCVQEYDSFILPLSEKFNINLNCTYDKTLSERNRKKVSIYKVTNYDEFKDHDLLELLKAVPVYNEELNIHEKVAAVK | failed
14 | MKRIQVSPHIYKLESWFLLKMSAWIVKEDEGVYIVDTGMPYMGKRILKEAEKLGKVKGVLLTHGHSDHVGGLKKILDIQDLPVYVHTLDIKHMEGKEPFPGRKKREYLVEPGVAKPLPVDEDGEFRCFGNLVPYHTPGHSPGHVCYYHKKDRVLIGGDLFTSKRGKLQQPIKMFTADMNEAVRSGEIVKKLQPSKVSICHGNDIDNPHTQIDEYLTHYKYERNDQQKIKNEDRTIS | failed
15 | MKRKAFLALGFLALGLGVSQVGPFRARLEAAIQTGGEAFAQVMLSQDKAQALCTQYRDKLPPELVPAFLAEQRALIKYPASGKLMGDWKNGEKVFTDPKRGNCYACHQGDPREVAYGTMGPSLTGYGQRGLSEAVVRYTYEKIYNAWAFVPCSLMYRGGVHGYFTPEETADLVAYLLSPESPINRR | failed
